Assay results: patent publication US20170106021A1, “COMPOSITIONS ENRICHED FOR HOX11+ STEM CELLS AND METHODS OF PREPARING THE SAME” (The General Hospital Corporation, priority 2014, published 2017)

Key:
mobilized stem cells = conditions: plerixafor 240 μg/kg; cited from earlier work
[1] = test system: CD34 mRNA expression in PBLs; assay: Quantitative real-time PCR of CD34 mRNA in peripheral blood lymphocytes (PBLs) of donors; assay type: in vivo, human; conditions: PBLs from G-CSF treated donors (mobilized, n=18) vs non-treated donors (non-mobilized, n=10); normalized to β-actin; p=0.02; FIGS. 1A, 1C
Description: (§1) All −70° C. frozen human peripheral blood cell samples used for this study were either from the Core Center of Excellence in Hematology (CCEH) at the Fred Hutchison Cancer Research Center or from Massachusetts General Hospital (MGH). These peripheral blood samples were obtained from donors not treated (non-mobilized samples) or treated with recombinant G-CSF (mobilized samples). Additional samples include peripheral blood samples from G-CSF treated donors that were further enriched for CD34+ stem cells. The non-mobilized, mobilized, and CD34+ stem cell enriched samples were obtained following human consent protocol 985.03-2 from Fred Hutchison Cancer Research Center. Additional fresh peripheral blood lymphocytes (PBLs) that were used to standardize the mRNA expressions of the frozen PBLs samples were obtained following human consent protocol MGH-2001P001379 from MGH, which involved the obligatory informed consent of all subjects.
(§2) Peripheral blood lymphocytes (PBLs) isolated from peripheral blood samples through leukapheresis were thawed in 37° C. water bath and washed with PBS+1% FBS twice. […] Quantitative real-time PCR was performed using Power SYBR Green reagent (Applied Biosystems, Foster City, Calif.) and the 7000 Real-Time PCR System.
(§3) Relative mRNA expression was calculated using a comparative count method (ddCT method). […]

[2] = test system: Hox11 mRNA expression in PBLs; assay: Quantitative real-time PCR of Hox11 mRNA in peripheral blood lymphocytes (PBLs) of donors; assay type: in vivo, human; conditions: PBLs from G-CSF treated donors (mobilized, n=18) vs non-treated donors (non-mobilized, n=10); normalized to β-actin; p=0.000013; FIGS. 1B, 1D
Description: as §1, §2, §3

Molecule	time at which the number of mobilized stem cells peaks after administration (mobilized stem cells)	CD34 mRNA expression (relative quantity) [1]	Hox11 mRNA expression (relative quantity) [2]
c1cc(CN2CCCNCCNCCCNCC2)ccc1CN1CCCNCCNCCCNCC1 [plerixafor]	4 to 10 h	–	–
granulocyte colony-stimulating factor (protein, UniProt P09919 31-207, looked up, cytokine mobilization agent administered to donors to mobilize stem cells to peripheral blood) Granulocyte …: TPLGPASSLPQSFLLKCLEQVRKIQGDGAALQEKLVSECATYKLCHPEELVLLGHSLGIPWAPLSSCPSQALQLAGCLSQLHSGLFLYQGLLQALEGISPELGPTLDTLQLDVADFATTIWQQMEELGMAPALQPTQGAMPAFASAFQRRAGGVLVASHLQSFLEVSYRVLRHLAQP	–	exclusively found in PBLs isolated from mobilized peripheral blood samples	exclusively found in PBLs isolated from mobilized peripheral blood samples
